Laboratory results: US20250295792A1, “POLYETHYLENE GLYCOL-MODIFIED FORM OF KININ OR DERIVATIVE THEREOF AND PHARMACEUTICAL USE THEREOF” (ZonHon Biopharma Institute, Inc., priority 2022, published 2025)
Where no end group is shown, it is not given here. [ ]: non-standard residue; d: D form. 2Thi = N[C@@H](Cc1cccs1)C(=O)O

Molecular target: B2 receptor
Assay: cell-based or functional assay

B2 receptor, sequence (P30411 whole entry): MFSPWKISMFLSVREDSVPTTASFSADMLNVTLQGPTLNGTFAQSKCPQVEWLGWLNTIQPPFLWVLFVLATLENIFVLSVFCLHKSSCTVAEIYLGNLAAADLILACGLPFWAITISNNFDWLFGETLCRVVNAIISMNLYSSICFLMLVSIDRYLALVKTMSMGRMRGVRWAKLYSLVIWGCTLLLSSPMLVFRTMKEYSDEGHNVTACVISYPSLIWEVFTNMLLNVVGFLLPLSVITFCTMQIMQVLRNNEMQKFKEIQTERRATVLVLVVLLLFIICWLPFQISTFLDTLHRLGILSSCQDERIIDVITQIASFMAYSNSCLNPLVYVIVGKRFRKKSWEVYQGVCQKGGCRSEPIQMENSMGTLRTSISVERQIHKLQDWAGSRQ

| Binder | Relative affinity activity (B2-NFAT-CHO-K1 luciferase reporter gene assay, from EC50) [%] |
| --- | --- |
| [2Thi]SPFR [Lys-BKm09] | 0 |
| RPPG[2Thi]SPFR [Lys-BKm02] | 100 |
| KRPPGXSPF ({THI} (β-2-thiophenylalanine) at position 6: KRPPG{THI}SPF) [Lys-BKm05] | < 10 |
| PG[2Thi]SPFR [Lys-BKm08] | < 10 |
| SPFR [Lys-BKm10] | 0 |

Now from value to binder:

| Relative affinity activity (B2-NFAT-CHO-K1 luciferase reporter gene assay, from EC50) [%] | Binder |
| --- | --- |
| 120 | CRRRPPG[2Thi]SPFR [Lys-BKm16] |
| 115 | CRRPPG[2Thi]SPFR [Lys-BKm13] |
| 125 | CRPPG[2Thi]SPFR [Lys-BKm15] |
